The assay in a line: ELISA assay on laminarin-coated plates. It is filed as binding. The following applies: for activity in ELISA test: recombinant antibody, laminarin-coated plates; for Abs 405 nm: ELISA of supernatants of humanised mAbs. The method, then: The activity of the purified antibody was then tested by ELISA assay. 96-well plates were coated with 50 μg/ml Laminarin (Sigma-Aldrich, L9634) in 0.05 M carbonate buffer pH 9.6 overnight at 4° C. Nonspecific interactions were blocked with 100 μL/well blocking solution, 3% (w/v) BSA in PBS-Tween 20 (8 g/L NaCl, 0.2 g/L KH2PO4, 2.9 g/L Na2HPO4·12 H2O, 0.2 g/L KCI, 0.05% (v/v) Tween 20, pH 7.4) at 37° C. for 1 h. The plates were then incubated with decreasing concentrations of hmAb 2G8_first approach (comparative purpose) (from 3.12 μg/ml to 0.003 μg/ml, each concentration was tested in triplicate) in blocking solution for 2 h at 37° C. At the same temperature and for the same time, 100 μL Goat anti-human-HRP diluted 1:1000 in blocking solution was poured in each well. After every single passage the plates were washed 5 times with PBS-Tween 20. To reveal the binding, 100 μl of 5 mg-ABTS tablet (Roche Diagnostics) dissolved in 12 ml of sodium citrate (0.05 M, pH 3) and supplemented with 1:1000 dilution hydrogen peroxide (Carlo Erba) was added and after 15, 30, 45 and 60 min the absorbance at 405 nm was measured. For the whole measuring time the plates were left in the dark. IC50 analysis of ELISA test was performed with Prism. The TEST was performed in triplicate.
The surnatants collected from the obtained humanised mAb were tested in ELISA test.
Four supernatants from hmAb according to the invention (H5/K3; H5/K1; H5/K7; H5/K5) were purified to confirm the data. 8 scalar dilutions, starting from 5 μg/ml, were tested.
The purified humanised mAb 2G8 H5/K1 was then tested in an ELISA assay using laminarin as a target.
(In general: In an ELISA, binding on a coated surface is turned into a signal by an enzyme label.)

B1: H3/K3: humanised recombinant Ab, second approach; VH H3 (SEQ ID NO: 20), VL K3 (SEQ ID NO: 19) (antibody, V domains shown)
VH: QVQLVQSGAEVKKPGASVKVSCKASGYTLSSYWIHWVRQAPGQGLEWIGWILPGSGSTNYAQKFQGKATITADKSTSTAYMELSSLRSEDTAVYYCAREGWYFDVWGQGTLVTVSS
VL: DIVMTQTPLSLSVTPGQPASISCKSSQSLLYSNGNTHLNWYLQRPGQSPQLLIYLVSNRASGVPDRFTGSGSGTDFTLKISRVEAEDVGVYYCVQGTHFPYTFGGGTKVEIK
modifications: VH-H3; VL-K3
Turning to B1, the “activity in ELISA test” value was “not active”.

B2: H5 K3: humanised mAb combining heavy chain H5 (SEQ ID NO: 22) and light chain K3 (SEQ ID NO: 19) (antibody, V domains shown)
VH: QVQLQQSGAELKKPGASVKISCKASGYTLSSYWLEWVRQRPGQGLEWIGEILPGSGSTNYNEKFKGRATFTADTSTNTAYMELSSLTSEDSAVYYCAREGWYFDVWGQGTTVTVSS
VL: DIVMTQTPLSLSVTPGQPASISCKSSQSLLYSNGNTHLNWYLQRPGQSPQLLIYLVSNRASGVPDRFTGSGSGTDFTLKISRVEAEDVGVYYCVQGTHFPYTFGGGTKVEIK
modifications: VH-H5; VL-K3
Regarding B2, the “Abs 405 nm” value is recorded as 2.47.

B3: H1 K1: humanised mAb, first approach CDR-grafting; VH H1 (SEQ ID NO: 16), VL K1 (SEQ ID NO: 15) (antibody, V domains shown)
VH: QVQLVQSGAEVKKPGASVKVSCKASGYTLSSYWMHWVRQAPGQGLEWMGIILPGSGSTSYAQKFQGRVTMTRDTSTSTVYMELSSLRSEDTAVYYCAREGWYFDVWGAGTTVTVSS
VL: DVVMTQSPLSLPVTLGQPASISCRSSQSLLYSNGNTHLNWFQQRPGQSPRRLIYLVSNRDSGVPDRFSGSGSGTDFTLKISRVEAEDVGVYYCVQGTHFPYTFGGGTKLEIK
modifications: VH-H1; VL-K1
Consider B3, for which the “Abs 405 nm” value turned out to be 0.35 and the “activity in ELISA test” value is given as “not active”.

B4: H3 K1: humanised mAb combining heavy chain H3 (SEQ ID NO: 20) and light chain K1 (SEQ ID NO: 15) (antibody, V domains shown)
VH: QVQLVQSGAEVKKPGASVKVSCKASGYTLSSYWIHWVRQAPGQGLEWIGWILPGSGSTNYAQKFQGKATITADKSTSTAYMELSSLRSEDTAVYYCAREGWYFDVWGQGTLVTVSS
VL: DVVMTQSPLSLPVTLGQPASISCRSSQSLLYSNGNTHLNWFQQRPGQSPRRLIYLVSNRDSGVPDRFSGSGSGTDFTLKISRVEAEDVGVYYCVQGTHFPYTFGGGTKLEIK
modifications: VH-H3; VL-K1
For B4, the “Abs 405 nm” value is 0.4.

B5: H6 K1: humanised mAb combining heavy chain H6 (SEQ ID NO: 24) and light chain K1 (SEQ ID NO: 15) (antibody, V domains shown)
VH: QVQLQQSGAELKKPGASVKISCKASGYTLSSYWIHWVRQRPGQGLEWIGEILPGSGSTNYNEKFKGRATFTADTSTNTAYMELSSLTSEDSAVYYCAREGWYFDVWGQGTTVTVSS
VL: DVVMTQSPLSLPVTLGQPASISCRSSQSLLYSNGNTHLNWFQQRPGQSPRRLIYLVSNRDSGVPDRFSGSGSGTDFTLKISRVEAEDVGVYYCVQGTHFPYTFGGGTKLEIK
modifications: VH-H6; VL-K1
B5: the “Abs 405 nm” value was 0.27.

B6: H5 K5: humanised mAb, third approach (Kabat); VH H5 (SEQ ID NO: 22), VL K5 (SEQ ID NO: 21) (antibody, V domains shown)
VH: QVQLQQSGAELKKPGASVKISCKASGYTLSSYWLEWVRQRPGQGLEWIGEILPGSGSTNYNEKFKGRATFTADTSTNTAYMELSSLTSEDSAVYYCAREGWYFDVWGQGTTVTVSS
VL: DIVMTQSPLSLPVTLGQPASISCKSSQSLLYSNGNTHLNWYQQRPGQSPRRLIYLVSKLDSGVPDRFSGSGSGTDFTLKISRVEAEDVGVYYCVQGTHFPYTFGGGTKLEIK
modifications: VH-H5; VL-K5
As for B6, the “Abs 405 nm” value was found to be 1.61 and the “activity in ELISA test” value is listed as “showed some activity”. For the same molecule, where the note is “ELISA”, the “activity / affinity compared with murine 2G8” value is recorded as “lower than the activity observed for the murine 2G8”.

The record behind these values is patent publication US20230406912A1, “HUMANISED ANTIBODIES AGAINST PATHOGENIC FUNGI” (priority 2020, published 2023).
